The DeepSol protein solubility set

experiment: soluble on expression in E. coli; label from the status in PepcDB or PDB records

Sequence	soluble on expression in E. coli
MSLSQQVPAASFTLLDGQKLSTQDLKGKVYLVNFWATSCATCVKEMPNMIQTYNKFKGQGLEFVAVAMSYDPPMYVMNYSQTRQLPFKVAMDADGAAARAFGDVQLTPTTFLVDRNGRILRRYVGEPEWASFETLLRDTLAKQAEGLITITTDPNSSSVDKLAAALEHHHHHH	soluble
MSLSRFQFVADHLHAFEVKWLCAGVEVARSSFYAWLAGAEGRAARKAADEALAARIRMVHDEDNTYGAPRITAELNDSVPDGERVNHKRVARVMRDAGIAGYRRRRRVKTTTPDPAKQKVPDLLKRDFTAPAPNEKYVGDITYLPLATGSNLYMATVIDCFSGRVAGWAIAEHMRTELVEDALKAADALRGSLAGAVFHSDHGSQYTSTDFASLCEKLGVTQSMGGVGSSADNALAESFNASLKREVLQDRSHWPDSATCRRQVFRWLVRYNLRRRHSRCRYSSPVSYERSHAPATLPEAAEGHHHHHH	not soluble
MSLSRYEKIISARWIITVETDGEVLENHAIAIRDGKIAAIIPAADAAGLEADERLELPDHVLMPGLINLHGHSAMSLLRGLADDKALMDWLTNYIWPTEGKHVHDDFVFDGSLLAMGEMIRGGTTTINDMYFYNAAVARAGLASGMRTFVGCSILEFPTNYASNADDYIAKGMAERSQFLGEDLLTFTLAPHAPYTVSDDTFRKVVTLAEQEDMLIHCHIHETADEVNNSVKEHGQRPLARLQRLGLLSPRLVAAHMVHLNDAEVELAARHGLSTAHNPASNMKLASGISPVSKLMDAGVAVGIGTDGAASNNKLDMLAETRLAALLAKVGTLDPTSVPAAAAIRMATLNGARALGIADKVGSVKVGKQADLIALDLAQLETAPAFDPISHVVYAAGREQVSHVWVKGRALMRERKLTTLDESDLKARAGDWRNRILAKEGHHHHHH	soluble
MSLSSVRDKYNFNSEWLLYVGDTPEAKEVRFQDTDWKKVTLPRPFNEDEAFRLSIEQLTDTVMWYRKHFRLPADSKNKKVFVEFEGVRQGADFYINGEYIGLHENGAMAVGFDLTPYIKYGQENVMAVRIDNNWNYKERATGTKYQWSDRNFNANYGGIPKNVWLHVTDKLYQTLPLYSNLKTTGVYIYAEDIRVKSRKAVVHAESEIKNEYNRDKKVAYKVEVFDRDGKSIKSFEGTQTVVKPGETATLEASAEIDGLHFWSWGYGYLYTVKTSLWVDGRKVDEVATRTGFRKTRFGKGMIWLNDRVIQMKGFAQRTSNEWPGVGMSVPAWLSDYSNGLMVEDNANLVRWMHITPWKQDIESCDRVGLIQAMQAGDAEKDREGRQWEQRTELMRDAIIYNRNNPSILFYECGNESISREHMIEMKAIRDKYDPHGGRAIGSREMLDIREAEYGGEMLYINKSKHHPMWAMEYCRDEGLRKYWDEYSYPYHKNGEGNNSFRSAMTNKVQKKVDARAYNHNQDSFTIENVIRWFDYWRERPGTGDRVSSGGVKIIFSDTNTHYRGVENYRRSGVTDAMRIPKDPFYAHQVMWDGWVDIENPRIHIVGHWNYKEDVVKPVYVVSSAEKVELFLNGKSLGNGQRDYHFLYTFKDVAFVPGKLEAVGYDKNGKECCRAELQTAGKPEQIKLSVIQSPKGWKADGADMVLLQVEVMDKDGRRCPLANDLIHFDVEGPAEWRGGIAQGKDNYILSKDLPVECGINRALIRSLTTPGAVRITAKADGLQSAEISLSSAPVEVKNGLSNYIPGDELEGRLTRGETPLTPSYKDTKVDVNILSAVAGANQDETIKSFDDNELSEWKNDGRLNSAWITYSLERAARVDEICMKLTGWRLRSYPLEIYAGDELIWSGETEKSLGYIHLNVKPVLTNEITIRLKGASKEGDGFGQIVEVAAPAAGELDLFKAKNGDKTNHELRIVEIEFKENLWQEGHHHHHH	soluble
MSLSTIRIGGAAVNQTPIDWENNVKNILDAIEEAKNANVEILCLPELCITGYGCEDLFLTDWVAETAIEYCFEIAASCTDITVSLGLPMRIAGITYNCVCLVENGIVKGFSAKQFLANEGVHYETRWFTAWPRNHTTTFLYNDVKYPFGDVLYNVKDARIGFEICEDAWRTDRVGIRHYEKGATLVLNPSASHFAFGKSAIRYDLVIGGSERFDCTYVYANLLGNEAGRMIYDGEVLIAHKGKLIQRNDRLSFKNVNLIYADIATDSAETPETVLTQDDLEKEFEFWEATSLGLFDYMRKSRSKGFVLSLSGGADSSACAIMVAEMIRKGLKELGLTAFLQKSNMETLFDLPALQHLPFEEQAKKITAVFLTTAYQSTRNSGDETYTSAKTLAESIGATFYNWSVDEEIEQYKATIENVIERPLTWEKDDITLQNIQARGRAPIIWMLTNVKQALLITTSNRSEGDVGYATMDGDTAGGIAPIAGVDKDFIRSWLRWAEKNRNQHGLHIVNKLAPTAELRPSEYTQTDERDLMPYDVLARIERKAIKERLSPVQVYTALLTEGPYTKNEFKYWVKKFFRLWSINQWKRERLAPSFHMDDFNIDPRSWYRFPILSSGFAKELNDLDQEGHHHHHH	soluble
MSLSTLRIAMTAADIPLTLGQPDQGYEGNRFTGIPLYDALVEWDLSQGEKPSGLVPGLATEWHIDPQNTSRWIFTLRPGVKFHDGTEVNADAIVWNVDKVLNKAAPQYAPGQIGNTLSRMPTLTGAEKIDDHTVALTTSEPDALLPYNITNLFIVSPTAWQKQYDAVPASVGDSAARSKQAWTAFAAHAVGSGPFKLEKLVPRQQLILDKNPDYWNKDRIPRVDKVVLIPLPEANARTAALLSKQVDWIEAPAPDAIDQIKSQGFHLYANTQPHLWPWQFSFEKGSPWQDIRVRKAANLCLNRAELKSYLGGYMTEATGVYEADSPWHGKPTFQIKYDPDVARQLMTEAGYSASKPLHVTVATSASGSGQMQPLPMNEYIQQSLKSCFFNVDIKVVEWNTLFTNWRLGARDPSAKGIDAINVSAAVNDPYFGLIRFSTAKAFPPVATNWGYFSTPETEKLAAAVKHAFTPAEMNKAAGELHAALVDQVPFLFVAHDVGPRAISPAVTGVVQPQSWFIDLSLVSKKEGHHHHHH	soluble
MSLSTQTVTIKSLGAQGDGIAHCPDGPVYVPFALPGETVAIAKVKDQGTVMSITEASADRRDPVCRHFGPEGINGTCGGCSLQHLADQPYHAFKRELVVSALRSKGLTPPVDDLVICRPGERRRAVFAARKTEKGLLLGFSQANSHHIVAIEECPVTSPGIVSRFDAIRAIGLSMVANAEPFRITVLETLSGLDISVEGIKSVNDKQRRTLTETVLAMRGIARVSLSGEILIEPQKPIIEFGGIPVSPPAGGFTQATKQAEDAMAELMLAHVGKSKRIADLFCGSGTFALRLARIGRVHAVEAEDKALKALDFAARNTQGLKPVSVEKRDLFRRPLMTSELKNYDAVVFDPPRAGAEVQCKELARSTVKKIVAVSCNPLTLARDLAILTEGGYRVTRVTPVDQFLWSPHVEAVAVLEKEGHHHHHH	soluble
MSLSTSPKPSPIPSPVLGQKPNASQSLLAWCREVTKNYRGVKITNFTTSWRNGLSFCAILHHFRPDLIDYKSLNPQDIKENNKKAYDGFASIGISRLLEPSDMVLLAIPDKLTVMTYLYQIRAHFSGQELNVVQIEENSSKSTYKVGNYETDTNSSVDQEKFYAELSDLKREGHHHHHH	soluble
MSLSYTKIFGLGGVHEIGKSTLVIHHEKSIAIIDAGIKFADSSTTGLHGIIPNYSYLKKHEDQIEGIFVTHGHEDHIGGIIYLLQQVKINKIFAPKIAIEYLKYKLEDRGLRIKVEFIEIKKDDTHHLGSLVVDFWTAQHSIPDAFGIRVKTPDGSVLCTGDFRIDYRPIGNYTDFSKLEQIGKEGLTLLLSDSTNAMRPNHSPSENDILKDIEKIMLAAKRKIIITTFASNLIRIKVIIELAEKLNKKIAVFGRSMVNGIAIGKELGYIKTPDSSFIDKKSIDQYEDKDIVILTTGSQGEQLAALSRMSYEKHPQVSIRKNDTIIFSSSPIPGNKMKIELLINRLYKLGAIIKENGVDGYLHTSGHAYQEEHEKIFSIAKPKYFFPYHGEYRMSVVHGQTAIRSGVKPENVIIPGIGEVVKMEEGHHHHHH	not soluble
MSLTANSHAVMTVGDQTVSPQEFRLAYQRQVSDLSRQFGTRLTTEQAKAFGIDRQVFSQLAAGAALDELASKMNLGLSENRLANLIAEDPAFKSVNGQFDRNLFSERLRNSGFREDDYIKERSKVAVRSQIVEAVSDGFAAPQVLVDALKQYRNEQRAVDYVILSNAVIPPVKAPGDDVLTPWFETNKSKYRAPEFRKFTYVKLEPSDIAEPASVTDAQIADYYNSHKDSFRTAGRRTVEQLTFPDKEMAAAAAEQIRLGNTTYDQVVKDQGKTASDVTLGEFTKDTIPDQSIADAAFAIQKDGGVSPVVDGSFGPILLRVTGIKPETEGHHHHHH	soluble
MSLTDDRYTVISADCHAGADLLDYRPYLAKRHHDAFDAWAATYVNPYEDLLADTADRNWNSERRLAELAADGIVAEVVFPNTIPPFFPSASLMAPAPTAAEFEQRWAGLRAHNRWLADFCAAAPGRRAGVFQILLNDVEEAVKEISWAAGAGLRGGLLLPGTPPGSGLPELYSKAYDPIWAVCEELDVPVNHHAGSASPPLGDEPAARAVFMVETTWFSHRALWHLVFGGAFRRHPGLRLVLTEQGSGWIPGVLDMLDYYHGRLVAAGPKSATAEAKFGAGLDRAMGKGPSEVWRDNCFVGASFMRPHEVPLRDRIGLDKIMWGSDYPHDEGTYPYSREGLRIAYAGLPRTEIAAMAGGNAARVYGFDLSEGHHHHHH	soluble
MSLTDEQFNPQDEEIEIEAIGVEVSCQPIELYKVLKIANAVSGGGEAKHVISEGYVFVNGDVETRKRCKVFDGDLIEFNQEFYLVICDAPVTEPESFDTQPELASSHKPTKTQKKSSANTSAKSKPSKNNKTVSGQKKAKNDKKSPQSDSKSPSGRSAIRFFEGGSHHHHHH	soluble
MSLTDLKEVARLAGVSRATAARAFASPEVVRAETRERVFVAARELGFRPNRLGRQLRLQTTNLIGVIVPNLLNPVFAEQFQAMERAARARGYNLLLATTDYSAERESAVVEELLRQRVDGLVLTVTDAEHNRVLESLAIEDTPFVLAYHQTDNEEYSAVSVDNRAGMALATRYLIDAGHRCIAMVAGPVMQSDRARLRYEGYRDAMNEGGLEARPVIEMPAHTNADFAALKPLLRGPTAPSALVCSNDLLAISLIAELRRNGWGVPERLSVIGFDGIALGTQMHPTLCSVVQPIAELAHIVIDQLLARIAGAVPVSHCLPCHIRPGESTQPYKEMLHAQPEGHHHHHH	soluble
MSLTEPEDPSRERLKHHFAQRVIHQARQILEIWQRLQRSEWSTTDMSELCEANLRLLRFAERFEQPEHTQLARSISQSLEAVDANRGRLSSNLITDLNRLMQRLSRTGLRHGDQLEQTFLPPLRKPIYVMLQDHDRAERLAKQLEFFGLSAQSLDSIPAFRSSMVERLPAAIVIDVDFCGAGMGLTLAAEAQVGLEQKLPLLFFSLHETDTPTRLAAVRAGGQEFLTGTLEASSLLEKIEVLTCVAQYEPYKVLIIDDSRAQALHTERLLNSAGIVTRTLIEPIQAMAELADFQPDLIILDMYMPACTGTELAKVIRHNDRYVSVPIIYLSAEDDLDKQLDAMSEGGDDFLTKPIKPRHLITTVRNRAARARNLKARMVRDSLTGEGHHHHHH	not soluble
